In publication PMC2324120, “Disease mechanism for retinitis pigmentosa (RP11) caused by missense mutations in the splicing factor gene PRPF31” (Molecular Vision, 2008):

T1: His-tagged PRPF31, wild type (human, UniProt Q8WWY3 1-499)
T1 construct: also called WT PRPF31; PRPF31-His; not shown: His tag, C-terminal, kept
T1 sequence (looked up): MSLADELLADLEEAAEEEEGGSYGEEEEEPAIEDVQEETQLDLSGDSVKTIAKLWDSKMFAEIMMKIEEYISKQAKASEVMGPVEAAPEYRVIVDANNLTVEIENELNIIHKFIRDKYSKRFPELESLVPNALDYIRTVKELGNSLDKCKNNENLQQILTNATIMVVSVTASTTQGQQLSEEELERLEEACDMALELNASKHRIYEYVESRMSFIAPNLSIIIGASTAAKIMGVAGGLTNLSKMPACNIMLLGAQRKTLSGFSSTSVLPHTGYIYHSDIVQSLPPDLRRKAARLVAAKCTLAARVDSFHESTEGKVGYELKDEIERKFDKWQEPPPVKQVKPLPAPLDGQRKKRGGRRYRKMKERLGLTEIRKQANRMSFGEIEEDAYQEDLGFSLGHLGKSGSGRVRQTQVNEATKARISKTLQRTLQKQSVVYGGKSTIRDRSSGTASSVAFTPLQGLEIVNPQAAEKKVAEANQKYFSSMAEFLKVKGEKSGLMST

T2: GST-tagged PRPF6 C-terminal HAT-containing domain (PRPF6C, residues 607-941) (human, UniProt O94906 607-941)
T2 construct: PRPF6 (U5-102 kD protein), human, residues 607-941, HAT domains 6-9 according to Pfam analysis; the forward primer printed for PRPF6C is nearly the same as that of PRPF6M; Cloned in pGEX6P-1 via EcoRI and SalI; also called GST-PRPF6C; PRP6F-C; not shown: GST, N-terminal, kept
T2 sequence (looked up): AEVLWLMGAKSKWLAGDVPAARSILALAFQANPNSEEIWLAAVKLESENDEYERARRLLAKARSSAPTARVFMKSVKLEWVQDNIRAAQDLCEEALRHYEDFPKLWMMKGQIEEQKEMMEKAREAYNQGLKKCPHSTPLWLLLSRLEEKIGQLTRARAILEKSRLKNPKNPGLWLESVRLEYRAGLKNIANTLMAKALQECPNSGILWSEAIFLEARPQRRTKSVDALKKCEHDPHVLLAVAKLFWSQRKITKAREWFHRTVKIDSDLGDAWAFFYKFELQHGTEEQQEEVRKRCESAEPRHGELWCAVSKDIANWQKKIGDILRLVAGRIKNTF

B1: GST-tagged PRPF6 middle HAT-containing domain (PRPF6M, residues 307-607) (domain or fragment, human, UniProt O94906 307-607, looked up)
chain: HHPPAWIASARLEEVTGKLQVARNLIMKGTEMCPKSEDVWLEAARLQPGDTAKAVVAQAVRHLPQSVRIYIRAAELETDIRAKKRVLRKALEHVPNSVRLWKAAVELEEPEDARIMLSRAVECCPTSVELWLALARLETYENARKVLNKARENIPTDRHIWITAAKLEEANGNTQMVEKIIDRAITSLRANGVEINREQWIQDAEECDRAGSVATCQAVMRAVIGIGIEEEDRKHTWMEDADSCVAHNALECARAIYAYALQVFPSKKSVWLRAAYFEKNHGTRESLEALLQRAVAHCPKA
notes: PRPF6 (U5-102 kD protein), human, residues 307-607, HAT domains 1-5 according to Pfam analysis; Cloned in pGEX6P-1 via EcoRI and SalI; also called GST-PRPF6M; PRP6F-M; not shown: GST, N-terminal, kept

Key:
Experiment in all cases: pull-down; GST-tagged PRPF6 domain from 100 µl E. coli extract bound to glutathione sepharose beads in PBS, excess removed and beads washed; 0.1 nmol purified His-tagged PRPF31 added in 200 µl, 30 min at 4 °C; three washes with chilled PBS, eluted with reduced glutathione; Western blots with Penta-His and anti-GST antibodies; bands quantified and normalised to WT, four determinations
Conditions in all cases: both partners purified
[1] = target: T1, His-tagged PRPF31, wild type
[2] = target: B1
[3] = target: T2, GST-tagged PRPF6 C-terminal …

Row | binding result [1] | ratio of mutant:WT PRPF31 band in the pull-down [2] | ratio of mutant:WT PRPF31 band in the pull-down [3] | Binder
1 | binds |  |  | B1
2 |  | 4.2 fold (mutant:WT) | 2.1 fold (mutant:WT) | His-tagged PRPF31 A216P mutant (natural protein, human, UniProt Q8WWY3 1-499, looked up, PRPF31 splicing factor, human, with the RP11 patient missense mutation A216P, cDNA in pTriEx-1; A216P is a disease mutation found in RP11 patients; also called mutant PRPF31; not shown: His tag, C-terminal, kept) MSLADELLADLEEAAEEEEGGSYGEEEEEPAIEDVQEETQLDLSGDSVKTIAKLWDSKMFAEIMMKIEEYISKQAKASEVMGPVEAAPEYRVIVDANNLTVEIENELNIIHKFIRDKYSKRFPELESLVPNALDYIRTVKELGNSLDKCKNNENLQQILTNATIMVVSVTASTTQGQQLSEEELERLEEACDMALELNASKHRIYEYVESRMSFIPPNLSIIIGASTAAKIMGVAGGLTNLSKMPACNIMLLGAQRKTLSGFSSTSVLPHTGYIYHSDIVQSLPPDLRRKAARLVAAKCTLAARVDSFHESTEGKVGYELKDEIERKFDKWQEPPPVKQVKPLPAPLDGQRKKRGGRRYRKMKERLGLTEIRKQANRMSFGEIEEDAYQEDLGFSLGHLGKSGSGRVRQTQVNEATKARISKTLQRTLQKQSVVYGGKSTIRDRSSGTASSVAFTPLQGLEIVNPQAAEKKVAEANQKYFSSMAEFLKVKGEKSGLMST
